Laboratory results published in paper PMC12005765 (Advanced Science, 2025).

How the values were obtained:
[1] = molecular target: CD3 epsilon-delta heterodimeric protein (Acro Biosystems) (Homo sapiens (assumed)) (UniProt P07766); assay: SPR; IgGs or Fc fusions captured on antihuman Fc polyclonal antibodies amine-coupled to a CM5 chip; spike trimer or CD3 epsilon-delta heterodimer injected; blank flow cell subtracted; 1:1 Langmuir model, simultaneous global fit of ka and kd, KD = kd/ka; BIAcore 2000 (methods) or BIAcore T100 (footnote of Table S3)
[2] = molecular target: T1, CD3 epsilon-delta heterodimeric protein (Acro Biosystems) (Homo sapiens (assumed), UniProt P07766;P04234); assay: as above; conditions: both partners purified
T1 construct: also called recombinant CD3delta epsilon; CD3delta-epsilon
T1 sequence (P07766 23-126, stated change not applied, chain 1 of 2): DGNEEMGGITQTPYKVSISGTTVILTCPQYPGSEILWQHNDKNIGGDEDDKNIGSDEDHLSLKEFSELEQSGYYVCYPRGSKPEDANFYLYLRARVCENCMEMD
T1 sequence (P04234 22-171, stated change not applied, chain 2 of 2): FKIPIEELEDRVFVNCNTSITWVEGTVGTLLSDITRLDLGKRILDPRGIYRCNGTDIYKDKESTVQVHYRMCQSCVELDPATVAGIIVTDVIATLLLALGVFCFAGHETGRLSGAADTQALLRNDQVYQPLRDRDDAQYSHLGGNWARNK

SC02, anti-S/CD3 bispecific CrossMab from CV3-25/UCHT1 (bispecific antibody)
Kd [1]: 0.29 nM
koff [1]: 0.000285 s⁻¹
kon [1]: 974000 M⁻¹ s⁻¹

B1: humanized UCHT1 (anti-CD3) (antibody, V domains shown)
VH: EVQLVESGGGLVQPGGSLRLSCAASGYSFTGYTMNWVRQAPGKGLEWVALINPYKGVSTYNQKFKDRFTISVDKSKNTAYLQMNSLRAEDTAVYYCARSGYYGDSDWYFDVWGQGTLVTVSS
VL: DIQMTQSPSSLSASVGDRVTITCRASQDIRNYLNWYQQKPGKAPKLLIYYTSRLESGVPSRFSGSGSGTDYTLTISSLQPEDFATYYCQQGNTLPWTFGQGTKVEIK
notes: also called anti-CD3 antibody
Kd [2]: 0.16 nM
